Article PMC4695337, “Crystal Structure of a Eukaryotic GEN1 Resolving Enzyme Bound to DNA”

Columns and labels:
CtGEN1 D143A = target: T1, CtGEN1 D143A (Chaetomium thermophilum? (printed C. …, UniProt G0RYN2 1-487, D143A)); assay: EMSA; EMSA fitted to Hill equation, protein 2.1-43 nM (monomer); binding buffer and temperature not in material. Crystals: 100 mM HEPES pH 7.5, 2 mM MgCl2, 20% PEG10000, 7 C; conditions: protein: recombinant; tags: C-terminal His6; chain copies: 2; four-way junction of 4 strands (b/h/r/x)
T1 sequence: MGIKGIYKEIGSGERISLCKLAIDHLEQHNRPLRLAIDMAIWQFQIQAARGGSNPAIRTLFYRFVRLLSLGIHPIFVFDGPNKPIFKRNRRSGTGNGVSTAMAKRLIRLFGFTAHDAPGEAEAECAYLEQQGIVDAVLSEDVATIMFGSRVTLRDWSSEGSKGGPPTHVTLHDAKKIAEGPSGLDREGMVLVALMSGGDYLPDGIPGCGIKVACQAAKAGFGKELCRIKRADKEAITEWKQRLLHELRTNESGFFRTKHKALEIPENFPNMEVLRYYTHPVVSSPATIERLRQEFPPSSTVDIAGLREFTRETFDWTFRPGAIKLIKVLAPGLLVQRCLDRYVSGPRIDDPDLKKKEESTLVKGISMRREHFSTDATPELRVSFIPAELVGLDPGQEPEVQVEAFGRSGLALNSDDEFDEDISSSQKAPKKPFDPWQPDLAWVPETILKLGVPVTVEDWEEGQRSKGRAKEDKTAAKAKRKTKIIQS

CtGEN1 D141A = target: T2, CtGEN1 D141A (Chaetomium thermophilum? (printed C. …, UniProt G0RYN2 1-487, D141A)); assay: as above; conditions: protein: recombinant; tags: C-terminal His6; chain copies: 2; four-way junction of 4 strands (b/h/r/x)
T2 sequence: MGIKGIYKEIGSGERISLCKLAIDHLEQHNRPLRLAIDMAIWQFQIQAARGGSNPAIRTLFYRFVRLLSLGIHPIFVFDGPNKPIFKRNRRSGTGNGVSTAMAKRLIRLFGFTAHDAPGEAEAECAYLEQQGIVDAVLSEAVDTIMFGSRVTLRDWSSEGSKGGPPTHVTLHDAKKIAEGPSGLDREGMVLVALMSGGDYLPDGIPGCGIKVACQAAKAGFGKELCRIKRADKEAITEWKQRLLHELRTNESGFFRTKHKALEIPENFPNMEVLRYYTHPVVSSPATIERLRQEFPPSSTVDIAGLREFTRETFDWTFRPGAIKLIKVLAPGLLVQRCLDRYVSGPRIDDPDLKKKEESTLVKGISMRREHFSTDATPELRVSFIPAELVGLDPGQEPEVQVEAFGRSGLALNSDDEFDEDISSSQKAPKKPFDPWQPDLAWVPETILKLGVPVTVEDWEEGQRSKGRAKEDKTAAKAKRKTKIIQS

CtGEN1 D79A = target: T3, CtGEN1 D79A (Chaetomium thermophilum? (printed C. …, UniProt G0RYN2 1-487, D79A)); assay: as above; conditions: protein: recombinant; tags: C-terminal His6; chain copies: 2; four-way junction of 4 strands (b/h/r/x)
T3 sequence: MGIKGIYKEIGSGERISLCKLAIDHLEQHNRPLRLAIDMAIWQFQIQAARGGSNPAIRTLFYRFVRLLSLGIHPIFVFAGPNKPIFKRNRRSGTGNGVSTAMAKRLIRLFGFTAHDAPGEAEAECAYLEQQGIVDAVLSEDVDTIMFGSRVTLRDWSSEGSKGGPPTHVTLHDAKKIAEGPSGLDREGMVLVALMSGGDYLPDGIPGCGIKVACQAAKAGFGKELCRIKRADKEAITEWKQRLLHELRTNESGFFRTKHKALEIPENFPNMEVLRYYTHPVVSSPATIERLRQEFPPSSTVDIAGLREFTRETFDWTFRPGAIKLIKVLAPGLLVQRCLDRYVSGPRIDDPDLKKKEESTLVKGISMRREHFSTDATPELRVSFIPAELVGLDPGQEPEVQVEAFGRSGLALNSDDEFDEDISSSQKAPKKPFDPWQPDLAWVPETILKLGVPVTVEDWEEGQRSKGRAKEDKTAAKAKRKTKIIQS

CtGEN1 D38A = target: T4, CtGEN1 D38A (Chaetomium thermophilum? (printed C. …, UniProt G0RYN2 1-487, D38A)); assay: as above; conditions: protein: recombinant; tags: C-terminal His6; chain copies: 2; four-way junction of 4 strands (b/h/r/x)
T4 sequence: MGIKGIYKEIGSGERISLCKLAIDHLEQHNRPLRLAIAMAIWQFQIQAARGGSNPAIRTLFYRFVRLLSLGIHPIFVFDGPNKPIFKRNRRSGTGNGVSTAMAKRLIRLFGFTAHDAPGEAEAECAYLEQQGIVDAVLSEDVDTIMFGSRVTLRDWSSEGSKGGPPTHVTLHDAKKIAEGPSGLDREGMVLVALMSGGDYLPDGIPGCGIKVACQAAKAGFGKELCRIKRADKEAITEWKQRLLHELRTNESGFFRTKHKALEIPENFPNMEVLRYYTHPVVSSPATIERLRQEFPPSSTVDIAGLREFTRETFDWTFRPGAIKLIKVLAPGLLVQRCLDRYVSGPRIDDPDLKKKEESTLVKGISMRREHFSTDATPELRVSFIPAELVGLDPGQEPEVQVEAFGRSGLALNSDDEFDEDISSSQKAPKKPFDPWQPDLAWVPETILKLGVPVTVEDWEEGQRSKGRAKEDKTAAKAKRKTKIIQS

CtGEN1 E122A = target: T5, CtGEN1 E122A (Chaetomium thermophilum? (printed C. …, UniProt G0RYN2 1-487, E122A)); assay: as above; conditions: protein: recombinant; tags: C-terminal His6; chain copies: 2; four-way junction of 4 strands (b/h/r/x)
T5 sequence: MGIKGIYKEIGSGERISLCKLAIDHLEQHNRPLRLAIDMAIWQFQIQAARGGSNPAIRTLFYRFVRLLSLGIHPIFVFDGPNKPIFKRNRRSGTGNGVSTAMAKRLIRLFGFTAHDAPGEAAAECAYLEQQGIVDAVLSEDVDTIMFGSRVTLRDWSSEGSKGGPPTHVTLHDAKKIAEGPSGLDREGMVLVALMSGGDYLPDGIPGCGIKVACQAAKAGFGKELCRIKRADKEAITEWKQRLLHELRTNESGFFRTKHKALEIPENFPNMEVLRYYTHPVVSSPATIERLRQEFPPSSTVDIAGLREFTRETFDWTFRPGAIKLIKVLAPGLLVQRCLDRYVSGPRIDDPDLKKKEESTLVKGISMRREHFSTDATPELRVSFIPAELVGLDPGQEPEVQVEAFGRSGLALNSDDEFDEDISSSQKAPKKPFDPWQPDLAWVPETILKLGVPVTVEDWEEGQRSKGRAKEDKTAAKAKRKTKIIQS

CtGEN1 [1] = target: T6, CtGEN1 (Chaetomium thermophilum? (printed C. …, UniProt G0RYN2 1-487)); assay: as above; conditions: protein: recombinant; tags: C-terminal His6; four-way junction of 4 strands (b/h/r/x)
T6 sequence: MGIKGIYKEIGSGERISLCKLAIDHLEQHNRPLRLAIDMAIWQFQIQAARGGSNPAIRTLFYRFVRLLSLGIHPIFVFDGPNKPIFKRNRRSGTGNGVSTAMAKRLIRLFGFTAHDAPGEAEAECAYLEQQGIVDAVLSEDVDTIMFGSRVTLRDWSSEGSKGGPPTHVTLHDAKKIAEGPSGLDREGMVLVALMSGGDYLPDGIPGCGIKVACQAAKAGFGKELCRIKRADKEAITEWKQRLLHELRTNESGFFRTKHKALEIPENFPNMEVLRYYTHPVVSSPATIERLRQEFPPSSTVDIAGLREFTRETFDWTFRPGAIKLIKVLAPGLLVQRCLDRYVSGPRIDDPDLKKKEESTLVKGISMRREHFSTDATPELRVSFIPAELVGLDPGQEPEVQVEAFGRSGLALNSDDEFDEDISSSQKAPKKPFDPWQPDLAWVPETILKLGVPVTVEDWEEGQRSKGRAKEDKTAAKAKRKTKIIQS

CtGEN1 E120A = target: T7, CtGEN1 E120A (Chaetomium thermophilum? (printed C. …, UniProt G0RYN2 1-487, E120A)); assay: as above; conditions: protein: recombinant; tags: C-terminal His6; chain copies: 2; four-way junction of 4 strands (b/h/r/x)
T7 sequence: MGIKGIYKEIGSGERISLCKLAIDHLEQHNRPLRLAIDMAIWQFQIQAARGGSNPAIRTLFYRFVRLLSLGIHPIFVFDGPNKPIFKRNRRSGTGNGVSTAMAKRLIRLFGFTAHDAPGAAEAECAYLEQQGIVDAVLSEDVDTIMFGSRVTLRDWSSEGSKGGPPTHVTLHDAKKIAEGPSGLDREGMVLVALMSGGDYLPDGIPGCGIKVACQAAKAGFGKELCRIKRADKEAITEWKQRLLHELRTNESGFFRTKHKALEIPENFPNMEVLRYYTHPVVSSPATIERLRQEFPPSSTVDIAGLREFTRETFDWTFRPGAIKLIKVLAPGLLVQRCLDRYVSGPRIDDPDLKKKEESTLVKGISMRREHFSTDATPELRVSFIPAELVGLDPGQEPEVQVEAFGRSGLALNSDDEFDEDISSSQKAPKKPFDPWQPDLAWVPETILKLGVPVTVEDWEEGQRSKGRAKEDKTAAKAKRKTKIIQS

CtGEN1 [2] = target: T6, CtGEN1; assay: crystal structure; Mg2+ (2 mM MgCl2); EMSA fitted to Hill equation, protein 2.1-43 nM (monomer); binding buffer and temperature not in material. Crystals: 100 mM HEPES pH 7.5, 2 mM MgCl2, 20% PEG10000, 7 C; conditions: protein: recombinant; tags: C-terminal His6; r strand 1-14 paired with h 17-30 (14 bp); r 16-30 paired with x 1-15 (15 bp); mismatch r15/x16
CtGEN1 [3] = target: T6, CtGEN1; assay: crystal structure; Mn2+ (1 mM MnCl2 soak); EMSA fitted to Hill equation, protein 2.1-43 nM (monomer); binding buffer and temperature not in material. Crystals: 100 mM HEPES pH 7.5, 2 mM MgCl2, 20% PEG10000, 7 C; conditions: protein: recombinant; tags: C-terminal His6; 14 bp with 3' overhang 1 nt on r strand

B1: four-way junction 3 (50 nt strands) (structured_DNA)
DNA 1: GGCTAAGGGATCCGTCCTAGCAAGGGGCTGCTACCGGAGGCTTACATCGG
DNA 2: CCGATGTAAGCCTCCGGTAGCAGCCTGAGCGGTGGTTGGATGTTGACTGC
DNA 3: GCAGTCAACATCCAACCACCGCTCAACTCAACTGCAGTCTAGATGGACTG
DNA 4: CAGTCCATCTAGACTGCAGTTGAGTCCTTGCTAGGACGGATCCCTTAGCC
CtGEN1 D143A
  Kd: 7.1 ± 0.01 nM
CtGEN1 D141A
  Kd: 10 ± 0.01 nM
CtGEN1 D79A
  Kd: 5.9 ± 0.05 nM
CtGEN1 D38A
  Kd: 6.2 ± 0.05 nM
CtGEN1 E122A
  Kd: 4.6 ± 0.04 nM
CtGEN1 [1]
  Kd: 7.7 ± 0.01 nM
CtGEN1 E120A
  Kd: 6.5 ± 0.1 nM

B2: junction 3 resolution product (crystal) (structured_DNA)
DNA 1: TCCAACCACCGCTCAACTCAACTGCAGTCT
DNA 2: GAGCGGTGGTTGGA
DNA 3: AGACTGCAGTTGAGTC
modifications: 5'-phosphate at cleaved 5' end of h strand product
CtGEN1 [2]
  binding result: binds

B3: R-stem duplex as modeled in 5CNQ (dsDNA)
DNA 1: TCCAACCACCGCTCA
DNA 2: GAGCGGTGGTTGGA
modifications: 5'-phosphate at cleaved 5' end of h strand product
CtGEN1 [3]
  binding result: binds
